# Measured values published in PMC11882521, “Cofactor engineering for improved production of 2,4-dihydroxybutyric acid via the synthetic homoserine pathway” (Frontiers in Bioengineering and Biotechnology, 2025).
# How the values were obtained:
# [1] = target: T1, Ec.Mdh^5Q D34G (OHB reductase, engineered E. coli malate dehydrogenase) (Escherichia coli, UniProt P61889, I12V/D34G/R81A/M85Q/D86S/G179D); assay: specific activity of purified enzyme at […] OHB and […] NADPH; format: biochemical
# T1 construct: N-terminally 6x-His-tagged
# T1 sequence (P61889 whole entry I12V/D34G/R81A/M85Q/D86S/G179D): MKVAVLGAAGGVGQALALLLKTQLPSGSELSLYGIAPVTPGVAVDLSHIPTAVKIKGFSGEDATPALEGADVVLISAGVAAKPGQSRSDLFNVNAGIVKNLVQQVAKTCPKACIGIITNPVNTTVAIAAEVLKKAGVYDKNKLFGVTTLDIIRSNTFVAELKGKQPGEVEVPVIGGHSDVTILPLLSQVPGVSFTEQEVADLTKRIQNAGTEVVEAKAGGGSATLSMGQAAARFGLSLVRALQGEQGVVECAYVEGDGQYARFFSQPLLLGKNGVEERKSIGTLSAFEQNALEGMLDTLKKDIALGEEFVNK
# [2] = target: T1, Ec.Mdh^5Q D34G (OHB reductase, engineered E. coli malate dehydrogenase); assay: specific activity of purified enzyme at […] OHB and […] NADH; format: biochemical
# [3] = tested on: T2, O=C(O)C(=O)CCO; assay: purified protein; format: biochemical, Escherichia coli
# T2 construct: N-terminally 6x-His-tagged
# [4] = tested on: T3, NC(=O)C1=CN([C@@H]2O[C@H](COP(=O)(O)OP(=O)(O)OC[C@H]3O[C@@H](n4cnc5c(N)ncnc54)[C@H](OP(=O)(O)O)[C@@H]3O)[C@@H](O)[C@H]2O)C=CC1; assay: purified protein; format: biochemical, Escherichia coli; settings: varied: cofactor
# T3 construct: N-terminally 6x-His-tagged
# [5] = tested on: T4, NC(=O)C1=CN([C@@H]2O[C@H](COP(=O)(O)OP(=O)(O)OC[C@H]3O[C@@H](n4cnc5c(N)ncnc54)[C@H](O)[C@@H]3O)[C@@H](O)[C@H]2O)C=CC1; assay: purified protein; format: biochemical, Escherichia coli; settings: co-enzyme binding site, varied: cofactor
# T4 construct: N-terminally 6x-His-tagged
# [6] = NADPH uncompetitive substrate inhibition (Ki =[…])
# [7] = […]'-phosphate group near positions […] and […] (selectivity control loop, cofactor binding motif of the Rossmann fold)
# [8] = co-enzyme binding site, Asp34 disfavours the […]'-phosphate group
# [9] = Asp34 confers cofactor specificity
compound,measurement,setting,value
NC(=O)C1=CN([C@@H]2O[C@H](COP(=O)(O)OP(=O)(O)OC[C@H]3O[C@@H](n4cnc5c(N)ncnc54)[C@H](OP(=O)(O)O)[C@@H]3O)[C@@H](O)[C@H]2O)C=CC1 [NADPH],specific activity of purified enzyme at 2 mM OHB and 0.25 mM NADPH,[1],35 ± 3 U mg^−1 (specific activity)
NC(=O)C1=CN([C@@H]2O[C@H](COP(=O)(O)OP(=O)(O)OC[C@H]3O[C@@H](n4cnc5c(N)ncnc54)[C@H](O)[C@@H]3O)[C@@H](O)[C@H]2O)C=CC1 [NADH],specific activity of purified enzyme at 2 mM OHB and 0.25 mM NADH,[2],23 ± 2 U mg^−1 (specific activity)
"Ec.Mdh^7Q (OHB reductase, engineered E. coli malate dehydrogenase) (Escherichia coli K-12; D34G/D86S/G179D/I12V/I35R/M85Q/R81A)",Km,[3]; [6],1080 µM
same,Vmax,[3]; [6],155 µmol/min/mg
same,kcat,[3]; [6],83.4 ± 3.4 s⁻¹
same,kcat/Km,[3]; [6],80300 ± 17300 M⁻¹ s⁻¹
same,Km,[4]; [7],100 µM
same,Vmax,[4]; [7],119 µmol/min/mg
same,kcat,[4]; [7],64 ± 9.97 s⁻¹
same,kcat/Km,[4]; [7],645000 ± 76200 M⁻¹ s⁻¹
same,Km,[5],270 µM
same,Vmax,[5],20 µmol/min/mg
same,kcat,[5],10.8 ± 1.07 s⁻¹
same,kcat/Km,[5],40400 ± 1710 M⁻¹ s⁻¹
"Ec.Mdh^5Q (OHB reductase, engineered E. coli malate dehydrogenase) (Escherichia coli K-12; D86S/G179D/I12V/M85Q/R81A)",Km,[3]; NADH,1840 µM
same,Vmax,[3]; NADH,138 µmol/min/mg
same,kcat,[3]; NADH,74.9 ± 5.63 s⁻¹
same,kcat/Km,[3]; NADH,44900 ± 15200 M⁻¹ s⁻¹
same,Km,[4]; [8],320 µM
same,Vmax,[4]; [8],5.56 µmol/min/mg
same,kcat,[4]; [8],2.99 ± 0.35 s⁻¹
same,kcat/Km,[4]; [8],9500 ± 50 M⁻¹ s⁻¹
same,Km,[5]; [9],40 µM
same,Vmax,[5]; [9],67.7 µmol/min/mg
same,kcat,[5]; [9],36.5 ± 1.68 s⁻¹
same,kcat/Km,[5]; [9],1.03e+06 ± 67500 M⁻¹ s⁻¹
